Data from publication PMC8605372.

Experiments:
[1] = target: dansyl-Gab2(637-649) peptide (UniProt Q9UQC2); test: Stopped-flow fluorescence (FRET Trp112 to dansyl), pseudo-first-order association kinetics; details: 298 K in Results, 283 K in Methods (conflict in the article), no added salt (50 mM buffer only), 50 mM acetate at pH 5.0 and 5.5, 50 mM Bis-Tris at pH 6.0 and 6.5, 50 mM Hepes at pH 7.0 and 7.5, 50 mM Tris-HCl at pH 8
[2] = target: dansyl-Gab2(637-649) peptide (UniProt Q9UQC2); test: Stopped-flow fluorescence (FRET), displacement kinetics; details: 298 K in Results, 283 K in Methods (conflict in the article), no added salt (50 mM buffer only), 50 mM acetate at pH 5.0 and 5.5, 50 mM Bis-Tris at pH 6.0 and 6.5, 50 mM Hepes at pH 7.0 and 7.5, 50 mM Tris-HCl at pH 8
[3] = target: dansyl-Gab2(637-649) peptide (UniProt Q9UQC2); test: Stopped-flow fluorescence (FRET), pseudo-first-order association kinetics, ionic-strength series; details: pH 8.0, 298 K in Results, 283 K in Methods (conflict in the article)
[4] = target: dansyl-Gab2(637-649) peptide (UniProt Q9UQC2); test: Stopped-flow kinetics; K D from the rate constants of C1 and C2; details: 298 K in Results, 283 K in Methods (conflict in the article), no added salt (50 mM buffer only), 50 mM acetate at pH 5.0 and 5.5, 50 mM Bis-Tris at pH 6.0 and 6.5, 50 mM Hepes at pH 7.0 and 7.5, 50 mM Tris-HCl at pH 8
His169 = His169 (UniProt position 169, KSKVTHVMIRC); test: kinetics (stopped-flow fluorescence/FRET binding and displacement); details: 283 K according to Methods (stopped-flow binding and displacement) and the Figure S2 legend. Results text states 298 K.; 50 mM buffer, no added salt stated for the pH series; 50 mM acetate (pH 5.0, 5.5), 50 mM Bis-Tris (pH 6.0, 6.5), 50 mM Hepes (pH 7.0, 7.5), 50 mM Tris-HCl (pH 8.0); 2 mM DTT in all; Folded domain, cysteines reduced. The binding reaction with the phosphopeptide was followed, so the pKa is derived from both kon and koff.

Row | Substance | k on ([1]; pH 5.0) [M⁻¹ s⁻¹] | k on ([1]; pH 5.5) [M⁻¹ s⁻¹] | k on ([1]; pH 6.0) [M⁻¹ s⁻¹] | k on ([1]; pH 6.5) [M⁻¹ s⁻¹] | k on ([1]; pH 7.0) [M⁻¹ s⁻¹] | k on ([1]; pH 7.5) [M⁻¹ s⁻¹] | k on ([1]; pH 8.0) [M⁻¹ s⁻¹] | k off ([2]; pH 5.0) [s⁻¹] | k off ([2]; pH 5.5) [s⁻¹] | k off ([2]; pH 6.0) [s⁻¹] | k off ([2]; pH 6.5) [s⁻¹] | k off ([2]; pH 7.0) [s⁻¹] | k off ([2]; pH 7.5) [s⁻¹] | k off ([2]; pH 8.0) [s⁻¹] | K D ([4]; pH 5.0) [µM] | K D ([4]; pH 5.5) [µM] | K D ([4]; pH 6.0) [µM] | K D ([4]; pH 6.5) [µM] | K D ([4]; pH 7.0) [µM] | K D ([4]; pH 7.5) [µM] | further results
1 | SHP2 C-SH2 domain H116A H116A | 1.6e+07 | 2.9e+07 | 1.9e+07 | 2e+07 | 1.5e+07 | 1.1e+07 | 1.4e+07 | 103 | 98 | 105 | 130 | 170 | 204 | 196 | 6.6 | 3.4 | 5.6 | 6.4 | 11 | 20 | K D ([4]; pH 8.0): 14 µM
2 | SHP2 C-SH2 domain H143A H143A | 1.1e+07 | 3.2e+07 | 2e+07 | 9e+06 | 8e+06 | 1.3e+07 | 1.4e+07 | 154 | 127 | 149 | 226 | 183 | 225 | 148 | 14.3 | 4 | 7.4 | 25 | 23 | 17 | K D ([4]; pH 8.0): 10.8 µM
3 | SHP2 C-SH2 domain H196A H196A | 2.4e+07 | 4e+07 | 2.1e+07 | 3.9e+07 | 3.7e+07 | 1.3e+07 | 1.2e+07 | 125 | 114 | 116 | 132 | 125 | 172 | 162 | 5.3 | 2.9 | 5.4 | 3.4 | 3.4 | 13 | K D ([4]; pH 8.0): 13 µM
4 | Tyrosine-protein phosphatase non-receptor type 11 (SHP2), C-terminal SH2 domain (C-SH2) (Homo sapiens (inferred; organism not stated in the article)) |  |  |  |  |  |  |  |  |  |  |  |  |  |  |  |  |  |  |  |  | pKa (His169): 7.1 ± 0.2

Continued, in another order:

Row | k on ([1]; pH 5.0) [M⁻¹ s⁻¹] | k on ([1]; pH 5.5) [M⁻¹ s⁻¹] | k on ([1]; pH 6.0) [M⁻¹ s⁻¹] | k on ([1]; pH 6.5) [M⁻¹ s⁻¹] | k on ([1]; pH 7.0) [M⁻¹ s⁻¹] | k on ([1]; pH 7.5) [M⁻¹ s⁻¹] | k on ([1]; pH 8.0) [M⁻¹ s⁻¹] | k off ([2]; pH 5.0) [s⁻¹] | k off ([2]; pH 5.5) [s⁻¹] | k off ([2]; pH 6.0) [s⁻¹] | k off ([2]; pH 6.5) [s⁻¹] | k off ([2]; pH 7.0) [s⁻¹] | k off ([2]; pH 7.5) [s⁻¹] | k off ([2]; pH 8.0) [s⁻¹] | K D ([4]; pH 5.0) [µM] | K D ([4]; pH 5.5) [µM] | K D ([4]; pH 6.0) [µM] | K D ([4]; pH 6.5) [µM] | K D ([4]; pH 7.0) [µM] | K D ([4]; pH 7.5) [µM] | Substance | further results
5 | 2.11e+07 | 2.86e+07 | 2.41e+07 | 2e+07 | 2.2e+07 | 1.36e+07 | 9.9e+06 | 80 | 79 | 112 | 141 | 147 | 234 | 210 | 3.8 | 2.8 | 4.7 | 6.9 | 6.8 | 17.2 | SHP2 (PTPN11) C-terminal SH2 domain, wild type | k on ([3]; highest of the series: 50 mM Tris-HCl + 150 mM NaCl, Tris-HCl 50 mM pH 8.0): 6.4e+06 ± 500000 M⁻¹ s⁻¹; k on ([3]; lowest of the series: 10 mM Tris-HCl, no NaCl, Tris-HCl 10 mM pH 8.0): 3.14e+07 ± 3.8e+06 M⁻¹ s⁻¹; K D ([4]; pH 8.0): 21.3 µM
6 | 1.08e+07 | 3.2e+07 | 5.2e+07 | 2.4e+07 | 3.1e+07 | 2.1e+07 | 2.3e+07 | 92 | 102 | 148 | 125 | 144 | 253 | 263 | 8.5 | 3.2 | 2.9 | 5.2 | 4.7 | 12 | SHP2 C-SH2 domain H114A H114A | K D ([4]; pH 8.0): 12 µM
7 | 2.2e+07 | 2.9e+07 | 4.5e+07 | 1.4e+07 | 2e+07 | 1.8e+07 | 1.1e+07 | 80 | 69 | 91 | 143 | 168 | 219 | 287 | 3.6 | 2.4 | 2 | 10.4 | 8.5 | 12 | SHP2 C-SH2 domain H132A H132A | K D ([4]; pH 8.0): 27 µM
